Reference: US20210388087A1 (Chugai, published 2021)

Target: T1, Human CD137 ECD (human)
T1 construct: entry includes C-terminal His-tag and biotin acceptor peptide; also called human CD137 extracellular domain; 4-1BB
Experiment: Biacore SPR, vs parent H183/L072

T1 sequence (chain, as listed by the source limits assumed): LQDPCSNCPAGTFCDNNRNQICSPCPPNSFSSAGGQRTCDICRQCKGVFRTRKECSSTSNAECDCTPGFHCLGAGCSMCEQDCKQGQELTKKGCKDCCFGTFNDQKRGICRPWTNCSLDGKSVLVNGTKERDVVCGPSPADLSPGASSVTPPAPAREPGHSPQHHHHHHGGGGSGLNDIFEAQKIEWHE

Binder	fold change of affinity
H183/L072 VL V27cK (antibody, name in Kabat numbering, V domains shown, Dual-Ig) VH: QVQLVESGGGLVQPGRSLRLSCAASGFTFSNAWMHWVRQAPGKGLEWVAQIKDKGNAYAAYYAPSVKGRFTISRDDSKNSIYLQMNSLKTEDTAVYYCHYVHYASASTVLPAFGVDAWGQGTTVTVSS VL: DIVMTQSPLSLPVTPGEPASISCQASQELKHMNRNTYLHWYQQKPGQAPRLLIYKVSNRFPGVPDRFSGSGSGTDFTLKISRVEAEDVGVYYCAQGTSVPFTFGQGTKLEIK	0.9 fold
H183/L072 VL V27cP (antibody, name in Kabat numbering, V domains shown, Dual-Ig) VH: QVQLVESGGGLVQPGRSLRLSCAASGFTFSNAWMHWVRQAPGKGLEWVAQIKDKGNAYAAYYAPSVKGRFTISRDDSKNSIYLQMNSLKTEDTAVYYCHYVHYASASTVLPAFGVDAWGQGTTVTVSS VL: DIVMTQSPLSLPVTPGEPASISCQASQELPHMNRNTYLHWYQQKPGQAPRLLIYKVSNRFPGVPDRFSGSGSGTDFTLKISRVEAEDVGVYYCAQGTSVPFTFGQGTKLEIK	0.5 fold
H183/L072 VL V27cQ (antibody, name in Kabat numbering, V domains shown, Dual-Ig) VH: QVQLVESGGGLVQPGRSLRLSCAASGFTFSNAWMHWVRQAPGKGLEWVAQIKDKGNAYAAYYAPSVKGRFTISRDDSKNSIYLQMNSLKTEDTAVYYCHYVHYASASTVLPAFGVDAWGQGTTVTVSS VL: DIVMTQSPLSLPVTPGEPASISCQASQELQHMNRNTYLHWYQQKPGQAPRLLIYKVSNRFPGVPDRFSGSGSGTDFTLKISRVEAEDVGVYYCAQGTSVPFTFGQGTKLEIK	0.8 fold
H183/L072 VL V27cL (antibody, name in Kabat numbering, V domains shown, Dual-Ig) VH: QVQLVESGGGLVQPGRSLRLSCAASGFTFSNAWMHWVRQAPGKGLEWVAQIKDKGNAYAAYYAPSVKGRFTISRDDSKNSIYLQMNSLKTEDTAVYYCHYVHYASASTVLPAFGVDAWGQGTTVTVSS VL: DIVMTQSPLSLPVTPGEPASISCQASQELLHMNRNTYLHWYQQKPGQAPRLLIYKVSNRFPGVPDRFSGSGSGTDFTLKISRVEAEDVGVYYCAQGTSVPFTFGQGTKLEIK	0.8 fold
H183/L072 VL V27cS (antibody, name in Kabat numbering, V domains shown, Dual-Ig) VH: QVQLVESGGGLVQPGRSLRLSCAASGFTFSNAWMHWVRQAPGKGLEWVAQIKDKGNAYAAYYAPSVKGRFTISRDDSKNSIYLQMNSLKTEDTAVYYCHYVHYASASTVLPAFGVDAWGQGTTVTVSS VL: DIVMTQSPLSLPVTPGEPASISCQASQELSHMNRNTYLHWYQQKPGQAPRLLIYKVSNRFPGVPDRFSGSGSGTDFTLKISRVEAEDVGVYYCAQGTSVPFTFGQGTKLEIK	0.3 fold
H183/L072 VL V27cT (antibody, name in Kabat numbering, V domains shown, Dual-Ig) VH: QVQLVESGGGLVQPGRSLRLSCAASGFTFSNAWMHWVRQAPGKGLEWVAQIKDKGNAYAAYYAPSVKGRFTISRDDSKNSIYLQMNSLKTEDTAVYYCHYVHYASASTVLPAFGVDAWGQGTTVTVSS VL: DIVMTQSPLSLPVTPGEPASISCQASQELTHMNRNTYLHWYQQKPGQAPRLLIYKVSNRFPGVPDRFSGSGSGTDFTLKISRVEAEDVGVYYCAQGTSVPFTFGQGTKLEIK	0.7 fold
H183/L072 VL V27cM (antibody, name in Kabat numbering, V domains shown, Dual-Ig) VH: QVQLVESGGGLVQPGRSLRLSCAASGFTFSNAWMHWVRQAPGKGLEWVAQIKDKGNAYAAYYAPSVKGRFTISRDDSKNSIYLQMNSLKTEDTAVYYCHYVHYASASTVLPAFGVDAWGQGTTVTVSS VL: DIVMTQSPLSLPVTPGEPASISCQASQELMHMNRNTYLHWYQQKPGQAPRLLIYKVSNRFPGVPDRFSGSGSGTDFTLKISRVEAEDVGVYYCAQGTSVPFTFGQGTKLEIK	0.9 fold
H183/L072 VL V27cN (antibody, name in Kabat numbering, V domains shown, Dual-Ig) VH: QVQLVESGGGLVQPGRSLRLSCAASGFTFSNAWMHWVRQAPGKGLEWVAQIKDKGNAYAAYYAPSVKGRFTISRDDSKNSIYLQMNSLKTEDTAVYYCHYVHYASASTVLPAFGVDAWGQGTTVTVSS VL: DIVMTQSPLSLPVTPGEPASISCQASQELNHMNRNTYLHWYQQKPGQAPRLLIYKVSNRFPGVPDRFSGSGSGTDFTLKISRVEAEDVGVYYCAQGTSVPFTFGQGTKLEIK	0.5 fold
H183/L072 VL V27cR (antibody, name in Kabat numbering, V domains shown, Dual-Ig) VH: QVQLVESGGGLVQPGRSLRLSCAASGFTFSNAWMHWVRQAPGKGLEWVAQIKDKGNAYAAYYAPSVKGRFTISRDDSKNSIYLQMNSLKTEDTAVYYCHYVHYASASTVLPAFGVDAWGQGTTVTVSS VL: DIVMTQSPLSLPVTPGEPASISCQASQELRHMNRNTYLHWYQQKPGQAPRLLIYKVSNRFPGVPDRFSGSGSGTDFTLKISRVEAEDVGVYYCAQGTSVPFTFGQGTKLEIK	0.9 fold

More lines, now with the values ahead:

fold change of affinity	Binder
0.6 fold	H183/L072 VL V51E (antibody, name in Kabat numbering, V domains shown, Dual-Ig) VH: QVQLVESGGGLVQPGRSLRLSCAASGFTFSNAWMHWVRQAPGKGLEWVAQIKDKGNAYAAYYAPSVKGRFTISRDDSKNSIYLQMNSLKTEDTAVYYCHYVHYASASTVLPAFGVDAWGQGTTVTVSS VL: DIVMTQSPLSLPVTPGEPASISCQASQELVHMNRNTYLHWYQQKPGQAPRLLIYKESNRFPGVPDRFSGSGSGTDFTLKISRVEAEDVGVYYCAQGTSVPFTFGQGTKLEIK
0.6 fold	H183/L072 VL V51I (antibody, name in Kabat numbering, V domains shown, Dual-Ig) VH: QVQLVESGGGLVQPGRSLRLSCAASGFTFSNAWMHWVRQAPGKGLEWVAQIKDKGNAYAAYYAPSVKGRFTISRDDSKNSIYLQMNSLKTEDTAVYYCHYVHYASASTVLPAFGVDAWGQGTTVTVSS VL: DIVMTQSPLSLPVTPGEPASISCQASQELVHMNRNTYLHWYQQKPGQAPRLLIYKISNRFPGVPDRFSGSGSGTDFTLKISRVEAEDVGVYYCAQGTSVPFTFGQGTKLEIK
0.7 fold	H183/L072 VL V27cY (antibody, name in Kabat numbering, V domains shown, Dual-Ig) VH: QVQLVESGGGLVQPGRSLRLSCAASGFTFSNAWMHWVRQAPGKGLEWVAQIKDKGNAYAAYYAPSVKGRFTISRDDSKNSIYLQMNSLKTEDTAVYYCHYVHYASASTVLPAFGVDAWGQGTTVTVSS VL: DIVMTQSPLSLPVTPGEPASISCQASQELYHMNRNTYLHWYQQKPGQAPRLLIYKVSNRFPGVPDRFSGSGSGTDFTLKISRVEAEDVGVYYCAQGTSVPFTFGQGTKLEIK
0.4 fold	H183/L072 VL V51G (antibody, name in Kabat numbering, V domains shown, Dual-Ig) VH: QVQLVESGGGLVQPGRSLRLSCAASGFTFSNAWMHWVRQAPGKGLEWVAQIKDKGNAYAAYYAPSVKGRFTISRDDSKNSIYLQMNSLKTEDTAVYYCHYVHYASASTVLPAFGVDAWGQGTTVTVSS VL: DIVMTQSPLSLPVTPGEPASISCQASQELVHMNRNTYLHWYQQKPGQAPRLLIYKGSNRFPGVPDRFSGSGSGTDFTLKISRVEAEDVGVYYCAQGTSVPFTFGQGTKLEIK
0.8 fold	H183/L072 VL V51A (antibody, name in Kabat numbering, V domains shown, Dual-Ig) VH: QVQLVESGGGLVQPGRSLRLSCAASGFTFSNAWMHWVRQAPGKGLEWVAQIKDKGNAYAAYYAPSVKGRFTISRDDSKNSIYLQMNSLKTEDTAVYYCHYVHYASASTVLPAFGVDAWGQGTTVTVSS VL: DIVMTQSPLSLPVTPGEPASISCQASQELVHMNRNTYLHWYQQKPGQAPRLLIYKASNRFPGVPDRFSGSGSGTDFTLKISRVEAEDVGVYYCAQGTSVPFTFGQGTKLEIK
0 fold	H183/L072 VL V51D (antibody, name in Kabat numbering, V domains shown, Dual-Ig) VH: QVQLVESGGGLVQPGRSLRLSCAASGFTFSNAWMHWVRQAPGKGLEWVAQIKDKGNAYAAYYAPSVKGRFTISRDDSKNSIYLQMNSLKTEDTAVYYCHYVHYASASTVLPAFGVDAWGQGTTVTVSS VL: DIVMTQSPLSLPVTPGEPASISCQASQELVHMNRNTYLHWYQQKPGQAPRLLIYKDSNRFPGVPDRFSGSGSGTDFTLKISRVEAEDVGVYYCAQGTSVPFTFGQGTKLEIK
0.7 fold	H183/L072 VL V27cW (antibody, name in Kabat numbering, V domains shown, Dual-Ig) VH: QVQLVESGGGLVQPGRSLRLSCAASGFTFSNAWMHWVRQAPGKGLEWVAQIKDKGNAYAAYYAPSVKGRFTISRDDSKNSIYLQMNSLKTEDTAVYYCHYVHYASASTVLPAFGVDAWGQGTTVTVSS VL: DIVMTQSPLSLPVTPGEPASISCQASQELWHMNRNTYLHWYQQKPGQAPRLLIYKVSNRFPGVPDRFSGSGSGTDFTLKISRVEAEDVGVYYCAQGTSVPFTFGQGTKLEIK
0.2 fold	H183/L072 VL V51F (antibody, name in Kabat numbering, V domains shown, Dual-Ig) VH: QVQLVESGGGLVQPGRSLRLSCAASGFTFSNAWMHWVRQAPGKGLEWVAQIKDKGNAYAAYYAPSVKGRFTISRDDSKNSIYLQMNSLKTEDTAVYYCHYVHYASASTVLPAFGVDAWGQGTTVTVSS VL: DIVMTQSPLSLPVTPGEPASISCQASQELVHMNRNTYLHWYQQKPGQAPRLLIYKFSNRFPGVPDRFSGSGSGTDFTLKISRVEAEDVGVYYCAQGTSVPFTFGQGTKLEIK
1.4 fold	H183/L072 VL V51K (antibody, name in Kabat numbering, V domains shown, Dual-Ig) VH: QVQLVESGGGLVQPGRSLRLSCAASGFTFSNAWMHWVRQAPGKGLEWVAQIKDKGNAYAAYYAPSVKGRFTISRDDSKNSIYLQMNSLKTEDTAVYYCHYVHYASASTVLPAFGVDAWGQGTTVTVSS VL: DIVMTQSPLSLPVTPGEPASISCQASQELVHMNRNTYLHWYQQKPGQAPRLLIYKKSNRFPGVPDRFSGSGSGTDFTLKISRVEAEDVGVYYCAQGTSVPFTFGQGTKLEIK
0.6 fold	H183/L072 VL V51H (antibody, name in Kabat numbering, V domains shown, Dual-Ig) VH: QVQLVESGGGLVQPGRSLRLSCAASGFTFSNAWMHWVRQAPGKGLEWVAQIKDKGNAYAAYYAPSVKGRFTISRDDSKNSIYLQMNSLKTEDTAVYYCHYVHYASASTVLPAFGVDAWGQGTTVTVSS VL: DIVMTQSPLSLPVTPGEPASISCQASQELVHMNRNTYLHWYQQKPGQAPRLLIYKHSNRFPGVPDRFSGSGSGTDFTLKISRVEAEDVGVYYCAQGTSVPFTFGQGTKLEIK
1.7 fold	H183/L072 VL V51L (antibody, name in Kabat numbering, V domains shown, Dual-Ig) VH: QVQLVESGGGLVQPGRSLRLSCAASGFTFSNAWMHWVRQAPGKGLEWVAQIKDKGNAYAAYYAPSVKGRFTISRDDSKNSIYLQMNSLKTEDTAVYYCHYVHYASASTVLPAFGVDAWGQGTTVTVSS VL: DIVMTQSPLSLPVTPGEPASISCQASQELVHMNRNTYLHWYQQKPGQAPRLLIYKLSNRFPGVPDRFSGSGSGTDFTLKISRVEAEDVGVYYCAQGTSVPFTFGQGTKLEIK
1 fold	H183/L072 VL V51M (antibody, name in Kabat numbering, V domains shown, Dual-Ig) VH: QVQLVESGGGLVQPGRSLRLSCAASGFTFSNAWMHWVRQAPGKGLEWVAQIKDKGNAYAAYYAPSVKGRFTISRDDSKNSIYLQMNSLKTEDTAVYYCHYVHYASASTVLPAFGVDAWGQGTTVTVSS VL: DIVMTQSPLSLPVTPGEPASISCQASQELVHMNRNTYLHWYQQKPGQAPRLLIYKMSNRFPGVPDRFSGSGSGTDFTLKISRVEAEDVGVYYCAQGTSVPFTFGQGTKLEIK
